Results published in US10059956B2, “Glycosyltransferase gene and use thereof” (SUNTORY HOLDINGS LIMITED, priority 2012, dated 2018).

Experiments:
[1] = test system: NmGT8 protein; test: Enzyme reaction of flavone substrates with His-tag purified NmGT8 protein solution and UDP-glucose (HPLC); format: biochemical, Nemophila menziesii; details: reactivity to various flavonoid compounds of FIG. 11 and betanidine
Procedure: The transformed E. coli were cultured at 37° C. to an OD600 value of 0.5 in 8 ml of the prepared culture liquid (approx. 4 hours). This E. coli culture liquid was then used as a pre-culture liquid and added to 200 ml of culture liquid followed by final culturing overnight at 25° C.
Following final culturing overnight, the E. coli culture liquid was centrifuged (1000×g, 4° C., 10 minutes), the collected cells were suspended in 20 ml of extract (composition: buffer (KCl: 300 mM, KH2PO4: 50 mM, imidazole: 5 mm) (pH 8.0), amidinophenylmethanesulfonyl fluoride hydrochloride (APMSF): 10 μM), and after crushing the E. coli by ultrasonic treatment, the crushed cells were centrifuged (1400×g, 4° C., 20 minutes) followed by recovery of the supernatant. This supernatant was passed through a 0.45 μm filter and purified by His-Tag protein purification using Profinia (Bio-Rad Laboratories, Inc.) in accordance with the protocol recommended by the manufacturer. The resulting purified protein solution was centrifuged (7500×g, 4° C., 15 minutes) using centrifugal filters (Ultracel-10K, Amicon Corp.) and the concentrated protein solution was designated as “NmGT8 Protein Solution”. The Avanti HP-26XP (rotor: JA-2) (Beckman Coulter Inc.) was used for centrifugation.
A reaction liquid prepared by mixing 10 μl of protein solution, 2 μl of 50 mM UDP-glucose, 10 μl of 1 M Tris HCl (pH 7.5) and 5 μl of 1 mM apigenin on ice and bringing to a volume of 100 μl with water was held for 20 minutes at 30° C. Subsequently, 100 μl of stop buffer (90% aqueous acetonitrile solution containing 0.1% TFA) were added to stop the reaction followed by analyzing the reaction liquid by high-performance liquid chromatography (Prominence (Shimadzu Corp.)). The Shimadzu PDA SPD-M10AVP was used for the detector and flavone was detected at 330 nm. The Shim-Pack ODS 150 mm×4.6 mm column (Shimadzu Corp.) was used for the column. A Solution A (0.1% aqueous TFA solution) and a Solution B (90% aqueous methanol solution containing 0.1% TFA) were used for elution. Elution was carried out using a linear concentration gradient from an 8:2 mixture of the two solutions to a 3:7 mixture of the two solutions over the course of 10 minutes followed by a 3:7 mixture for 6 minutes. The flow rate was 0.6 ml/min.

[2] = test system: rose (Noblesse, Ritapa Humera); test: Flower petal pigment analysis of recombinant rose introduced with NmGT8; format: in vivo
Source text: Binary vectors pSPB4577, pSBP4578, pSBP5437 and pSBP5440 for expressing NmGT8 were constructed and introduced into rose (Noblesse, Ritapa Humera). […] Details of the introduced constructs are described below (see FIG. 21).
(§1) pBINPLUS was used for the basic skeleton of pSPB5477, and three expression cassettes were contained therein (consisting of 1: EI235S promoter, full-length cDNA pansy F3′5′H and mas terminator; 2: EI235S promoter, full-length cDNA torenia flavone synthase and mas terminator; and, 3: EI235S promoter, full-length cDNA NmGT8 and mas terminator).
as §1, with “of pSPB4578,” for “of pSPB5477,”, “1: perilla anthocyanin 3-acyltransferase promoter (described in PCT/JP2010/053909),” for “1: EI235S promoter,”, “terminator). […]” for “terminator).”
Pigments in the flower petals were analyzed for full-length cDNA torenia flavone synthase and full-length cDNA NmGT8 in those strains in which transcription products were confirmed. […] The flower petal extract was analyzed by high-performance liquid chromatography (Prominence (Shimadzu Corp.)). […] Non-recombinant rose not introduced with the genes was analyzed in the same manner as a control (FIG. 22). Flower petal extract diluted 50-fold was also analyzed with a high-performance liquid chromatograph (Shimadzu Corp.). The Shimadzu LCMS-IF-TOF was used for the detector and flavones were detected at […] ([Api-Glc+H]) and […] ([Lut-Glc+H]). […]

[3] = recombinant rose flower petal extract, LC-MS

B1: NmGT8: nemophila glycosyltransferase (SEQ ID NO: 1/2) having activity that transfers a sugar to the hydroxyl group at the 4′-position of a flavone (protein, listed as Nemophila menziesii)
chain: MEKKTIILYPSPGIGHLVSMVELAKLILNREPSYSIIIFISSAPYSTGSSAPYISHVSATTSGISFHHLPVLVLPPNTFSSFEEIAYKIPQLNNPNLKLALQTISKESSDLKAFIIDFFCTAAVEVSSNLEIPTYFFFTSGSSAMCQFLYLPTLHETITQKDLQDPNTYVHIPGIPPIHSLDLPKVLSNRSTVLYKELINTANQMAKCSGILINAFETLEPKAVKALKEGLCTPGMPTPPVYCIGPLIASGDKGNVNDAHGHEILTWLNSQPSKSVVFLCFGSLGTFKEDQLKEIAIGLENSGHRFLWVMKSPPIDDKTKRFLPPPEPDFNVLLPEGFLERTKERGVIVKSWAPQLAILNHDAIGGFVTHCGWNSVLEAICGGVPMLAWPLYAEQRVNRVCMVEEMKVALPLEESVDGFVMASEIEKRVKELVDYESSEAIRDQVKIMSEKAKTAVAVSGSSHDALTKLLDGWK
substrate specificity [1]: high substrate specificity and selectively glycosylate the 4′-position of flavones | flavone 4′-glucoside share of the biosynthesized flavones [2, 3]: 97.0% | flavone 7-glucoside share of the biosynthesized flavones [2, 3]: 3.0% | flavones detected in flower petals ([2]; recombinant rose introduced with flavone synthase and NmGT8, HPLC): apigenin 4′-glucoside and luteolin 4′-glucoside were detected
